Assay results from paper PMC4920709.

Molecular target: Proprotein Convertase Subtilisin/Kexin type 9 (PCSK9), human plasma (human (endogenous in plasma)) (UniProt Q8NBP7)
UniProt Q8NBP7, sequence (Q8NBP7 153-692): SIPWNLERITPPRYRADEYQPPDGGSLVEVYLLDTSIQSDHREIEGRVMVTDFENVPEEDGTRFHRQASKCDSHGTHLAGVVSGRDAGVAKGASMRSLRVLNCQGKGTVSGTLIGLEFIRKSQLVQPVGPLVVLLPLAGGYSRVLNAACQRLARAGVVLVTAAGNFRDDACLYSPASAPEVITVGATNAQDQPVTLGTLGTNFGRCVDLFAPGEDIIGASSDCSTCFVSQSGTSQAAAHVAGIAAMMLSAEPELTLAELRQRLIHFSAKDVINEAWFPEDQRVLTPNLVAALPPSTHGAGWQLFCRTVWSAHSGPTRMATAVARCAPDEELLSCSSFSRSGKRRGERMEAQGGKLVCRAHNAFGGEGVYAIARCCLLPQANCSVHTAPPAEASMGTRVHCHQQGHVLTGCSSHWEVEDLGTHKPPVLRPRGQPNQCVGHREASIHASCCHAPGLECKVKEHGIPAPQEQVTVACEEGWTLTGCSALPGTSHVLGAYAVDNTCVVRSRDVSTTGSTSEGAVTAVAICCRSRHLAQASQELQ

percent of plasma PCSK9 associated with apoB: 37%
Substance: apolipoprotein B-100 (apoB-100) of human plasma LDL and Lp(a) (from UniProt P04114 28-4563) (natural protein)
